The target of this experiment is fluorescein-labeled HMGB1 (full-length) (rat) (UniProt P63159). As to the kind of experiment: fluorescence polarisation.

Experimental findings from paper PMC5087801 are described below.

Broadly, the Kd is a measure of binding affinity in units of concentration. Read a low Kd as tighter binding.

Sequence of UniProt P63159 (P63159 whole entry): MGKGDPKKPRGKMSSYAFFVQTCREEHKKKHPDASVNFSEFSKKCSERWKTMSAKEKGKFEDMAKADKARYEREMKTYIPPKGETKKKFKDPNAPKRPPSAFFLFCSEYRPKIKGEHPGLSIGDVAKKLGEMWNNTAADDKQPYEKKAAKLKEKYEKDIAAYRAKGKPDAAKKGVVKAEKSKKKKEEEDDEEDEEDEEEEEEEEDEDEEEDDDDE

Substance “Danio rerio TLR5-N14VLR (drTLR5) (receptor)” came in with a dissociation constant (Kd) of 2900 nM.
